Measured values taken from US20110039770A1 (PHARMAGAP, published 2011).

B1: PRE 12 (peptide)
peptide: Ac-KDAQNLI-NH2
notes: Ac-KDAQNLI-NH2; also called peptide PRE 12
B2: PRE 13 (peptide)
peptide: Ac-RDAQNLI-NH2
notes: Ac-RDAQNLI-NH2; also called peptide PRE 13

Tests used:
[1] = molecular target: T1, PKC-α (purified isoform) (Homo sapiens (Human), UniProt P17252 2-672); experiment: competitive ELISA, coated purified PKC-α, vs anti-PKC α (SC-208); PRE 50 µM
T1 construct: also called purified PKC-alpha; commercially purified PKC-alpha
Experimental: (§1) Greiner 96 well ELISA plates were coated with the appropriate PKC isoform diluted in PBSN (PBS with Calcium/Magnesium+0.05% Sodium azide w/w). 50 μL/well at 250 ng/mL was used. Control wells contained PBSN only. Plates were incubated overnight at 4° C.
(§2) The plates were washed 3 times with 200 μL of dH₂O per well, then 100 μL of blocking solution was added per well and the plate incubated for 1 h at 37° C. The washing steps with dH₂O were repeated and 50 μL of the appropriate PRE solution (PRE stock solution [20 mM in DMSO] diluted in PBSN) was added and the plate incubated for 1 h at room temperature.
(§3) 50 μL of 1:1000 dilution of Alkaline Phosphatase (AP) conjugated antibody (anti-rabbit for all except zeta, which was anti-goat) was then added and the plate incubated for 1 h at room temperature. Washing with dH₂O was then repeated. Finally, 100 μL of pNPP solution in pNPP buffer (2 mM MgCl₂, 100 mM Sodium bicarbonate in water, pH 9.8) was added to all wells and incubated for 8 minutes for α, βI, βII ε, and ζ, or for 15-20 mins for δ (until sufficient coloration is observed). The reaction was stopped by addition of Stop solution (2N NaOH) and the absorbance at 405 nm was read on a Galaxy Plate reader.

[2] = molecular target: T2, PKC-δ (purified isoform); experiment: competitive ELISA, coated purified PKC-δ, vs anti-PKC δ (SC-213); PRE 50 µM
T2 construct: also called PKC-delta
T2 sequence (Q05655 whole entry, stated change not applied, canonical isoform): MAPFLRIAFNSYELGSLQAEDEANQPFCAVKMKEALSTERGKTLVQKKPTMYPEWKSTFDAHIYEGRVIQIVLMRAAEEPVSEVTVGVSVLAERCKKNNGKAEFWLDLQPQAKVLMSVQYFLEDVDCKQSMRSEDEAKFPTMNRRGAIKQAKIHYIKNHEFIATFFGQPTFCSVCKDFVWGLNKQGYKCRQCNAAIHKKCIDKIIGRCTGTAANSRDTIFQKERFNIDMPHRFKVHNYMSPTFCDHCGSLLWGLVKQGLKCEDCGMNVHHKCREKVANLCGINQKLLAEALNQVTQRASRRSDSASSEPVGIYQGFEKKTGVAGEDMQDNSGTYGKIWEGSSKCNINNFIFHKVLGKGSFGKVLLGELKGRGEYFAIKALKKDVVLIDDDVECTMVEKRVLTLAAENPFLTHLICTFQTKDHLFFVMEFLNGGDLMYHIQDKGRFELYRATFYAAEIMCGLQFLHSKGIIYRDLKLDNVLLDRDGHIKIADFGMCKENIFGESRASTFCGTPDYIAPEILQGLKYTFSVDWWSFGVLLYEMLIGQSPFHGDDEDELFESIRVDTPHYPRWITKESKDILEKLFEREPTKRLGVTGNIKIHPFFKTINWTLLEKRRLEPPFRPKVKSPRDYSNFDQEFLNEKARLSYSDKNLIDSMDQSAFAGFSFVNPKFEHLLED
Experimental: as §1, §2, §3

[3] = molecular target: T1, PKC-α (purified isoform); experiment: competitive ELISA, coated purified PKC-α, vs anti-PKC α (SC-208); PRE 100 µM
Experimental: as §1, §2, §3

[4] = molecular target: T1, PKC-α (purified isoform); experiment: competitive ELISA, coated purified PKC-α, vs anti-PKC α (SC-208); PRE 200 µM
Experimental: as §1, §2, §3

[5] = molecular target: T2, PKC-δ (purified isoform); experiment: competitive ELISA, coated purified PKC-δ, vs anti-PKC δ (SC-213); PRE 100 µM
Experimental: as §1, §2, §3

[6] = molecular target: T2, PKC-δ (purified isoform); experiment: competitive ELISA, coated purified PKC-δ, vs anti-PKC δ (SC-213); PRE 200 µM
Experimental: as §1, §2, §3

[7] = molecular target: T3, PKC-βI (purified isoform) (Homo sapiens (Human), UniProt P05771 2-671); experiment: competitive ELISA, coated purified PKC-βI, vs anti-PKC βI (SC-209); PRE 50 µM
T3 construct: also called PKC-beta I; PKC beta 1
T3 sequence (P05771 2-671 limits assumed): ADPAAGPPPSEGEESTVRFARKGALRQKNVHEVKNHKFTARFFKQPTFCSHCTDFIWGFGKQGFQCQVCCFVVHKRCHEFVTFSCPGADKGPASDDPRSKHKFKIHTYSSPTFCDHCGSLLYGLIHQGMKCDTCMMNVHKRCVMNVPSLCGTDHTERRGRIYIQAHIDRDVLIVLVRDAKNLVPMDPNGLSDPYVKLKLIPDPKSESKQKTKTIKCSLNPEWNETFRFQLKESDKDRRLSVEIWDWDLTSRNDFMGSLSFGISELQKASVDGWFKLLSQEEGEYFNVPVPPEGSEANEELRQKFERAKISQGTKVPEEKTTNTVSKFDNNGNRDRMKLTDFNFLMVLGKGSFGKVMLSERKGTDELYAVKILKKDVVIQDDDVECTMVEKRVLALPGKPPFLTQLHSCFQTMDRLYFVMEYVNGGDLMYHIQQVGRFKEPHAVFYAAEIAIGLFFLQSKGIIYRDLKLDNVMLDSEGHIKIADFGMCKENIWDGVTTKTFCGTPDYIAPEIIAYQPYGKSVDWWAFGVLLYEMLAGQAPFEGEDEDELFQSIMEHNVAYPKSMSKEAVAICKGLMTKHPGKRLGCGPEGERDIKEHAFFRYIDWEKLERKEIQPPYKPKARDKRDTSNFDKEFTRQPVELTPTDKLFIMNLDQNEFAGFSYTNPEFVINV
Experimental: as §1, §2, §3

[8] = molecular target: T3, PKC-βI (purified isoform); experiment: competitive ELISA, coated purified PKC-βI, vs anti-PKC βI (SC-209); PRE 100 µM
Experimental: as §1, §2, §3

[9] = molecular target: T3, PKC-βI (purified isoform); experiment: competitive ELISA, coated purified PKC-βI, vs anti-PKC βI (SC-209); PRE 200 µM
Experimental: as §1, §2, §3

[10] = molecular target: T4, PKC-βII (purified isoform) (Homo sapiens (Human), UniProt P05771 2-621); experiment: competitive ELISA, coated purified PKC-βII, vs anti-PKC βII (SC-210); PRE 50 µM
T4 construct: also called PKC-beta II; PKC beta 2
T4 sequence (P05771 other isoform, or with tags, fused parts or gaps limits assumed): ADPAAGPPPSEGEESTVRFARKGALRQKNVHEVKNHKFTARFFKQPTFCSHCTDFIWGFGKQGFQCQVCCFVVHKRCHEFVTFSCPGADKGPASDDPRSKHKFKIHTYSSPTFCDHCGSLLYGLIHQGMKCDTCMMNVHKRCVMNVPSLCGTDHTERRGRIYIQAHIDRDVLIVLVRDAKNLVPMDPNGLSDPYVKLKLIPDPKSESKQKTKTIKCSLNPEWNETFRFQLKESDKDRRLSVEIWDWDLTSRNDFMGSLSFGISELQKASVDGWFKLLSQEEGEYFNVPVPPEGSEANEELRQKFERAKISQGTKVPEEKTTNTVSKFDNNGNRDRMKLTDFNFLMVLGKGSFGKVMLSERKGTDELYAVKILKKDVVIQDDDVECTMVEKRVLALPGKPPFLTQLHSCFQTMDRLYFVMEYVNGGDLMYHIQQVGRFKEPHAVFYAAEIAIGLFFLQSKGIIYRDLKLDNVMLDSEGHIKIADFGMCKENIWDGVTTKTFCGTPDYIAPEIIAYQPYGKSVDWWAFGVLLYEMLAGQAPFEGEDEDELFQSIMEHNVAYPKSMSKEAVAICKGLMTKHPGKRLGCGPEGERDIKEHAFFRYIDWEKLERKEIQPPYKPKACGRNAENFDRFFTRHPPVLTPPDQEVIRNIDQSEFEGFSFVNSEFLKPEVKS
Experimental: as §1, §2, §3

[11] = molecular target: T4, PKC-βII (purified isoform); experiment: competitive ELISA, coated purified PKC-βII, vs anti-PKC βII (SC-210); PRE 100 µM
Experimental: as §1, §2, §3

[12] = molecular target: T4, PKC-βII (purified isoform); experiment: competitive ELISA, coated purified PKC-βII, vs anti-PKC βII (SC-210); PRE 200 µM
Experimental: as §1, §2, §3

Row | Binder | relative binding capacity (100-%n, DMSO subtracted) [1] | relative binding capacity (100-%n, DMSO subtracted) [2] | relative binding capacity (100-%n, DMSO subtracted) [3] | relative binding capacity (100-%n, DMSO subtracted) [4] | relative binding capacity (100-%n, DMSO subtracted) [5] | relative binding capacity (100-%n, DMSO subtracted) [6] | relative binding capacity (100-%n, DMSO subtracted) [7] | relative binding capacity (100-%n, DMSO subtracted) [8] | relative binding capacity (100-%n, DMSO subtracted) [9] | relative binding capacity (100-%n, DMSO subtracted) [10] | relative binding capacity (100-%n, DMSO subtracted) [11] | relative binding capacity (100-%n, DMSO subtracted) [12]
1 | B1 | 3.29% | 2.26% | 5.16% | 0% | 1.02% | 23.5% | 0.79% | 0% | 0% | 4.55% | 0% | 0%
2 | B2 | 0% | 0% | 0% | 0% | 0.79% | 17.9% | 0% | 0% | 0% | 0% | 1.63% | 0%
3 | Ac-AKGIQEVKGGKDAQNLIGISI-NH2 (also called peptide PRE 5) [PRE 5] | 0% | 0.2% | 0% | 0% | 0% | 4.31% | 0% | 0% | 0% | 0% | 0% | 0%
4 | Ac-ISIGILNQADK-NH2 (also called peptide PRE 10) [PRE 10] | 0% | 0% | 0% | 0% | 0% | 9.47% | 3.77% | 4.35% | 0% | 0% | 0% | 0%
